# T1: M.HhaI (DNA cytosine-C5 methyltransferase) (Haemophilus haemolyticus, UniProt P05102 1-327)
# T1 sequence: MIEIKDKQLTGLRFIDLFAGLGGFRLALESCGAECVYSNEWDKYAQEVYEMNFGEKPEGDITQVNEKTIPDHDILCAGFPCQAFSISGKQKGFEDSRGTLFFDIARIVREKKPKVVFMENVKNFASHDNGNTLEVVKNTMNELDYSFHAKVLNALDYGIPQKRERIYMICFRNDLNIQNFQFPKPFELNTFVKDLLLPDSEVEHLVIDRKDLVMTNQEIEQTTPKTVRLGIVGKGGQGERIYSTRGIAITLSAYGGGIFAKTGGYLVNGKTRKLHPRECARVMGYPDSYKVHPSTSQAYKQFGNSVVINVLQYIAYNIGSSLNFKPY
# Target: T1, M.HhaI (DNA cytosine-C5 …)
# Assay: anion-exchange HPLC; complex of M.HhaI with coupling product; 80 uM cofactor 5, 10 uM duplex, 11 uM M.HhaI, 37 C 3 h; stable to chromatography, released at 65 C; 10 mM Tris-HCl pH 7.4, 50 mM NaCl, 0.05 mM EDTA, 2 mM beta-mercaptoethanol, 37 C; anion-exchange HPLC (Poros 10 HQ) in KCl gradient 0.2-1 M
# Details: label: biotin (via cofactor 5); blunt
binder,measurement,value
"duplex ODN I5·II (coupling product with aziridine cofactor 5) (dsDNA, target C (position 7 of strand I) alkylated with 7-deazaadenosylaziridine-biotin cofactor 5; 5-methyl-dC at position 6 of strand II) DNA 1: TGTCAGCGCATGA DNA 2: TCATGCGCTGACA",binding result,binds

# — article PMC6332214, “A 7-Deazaadenosylaziridine Cofactor for Sequence-Specific Labeling of DNA by the DNA Cytosine-C5 Methyltransferase M.HhaI”
